For one assay, the target named is T1, CXCR4 (Homo sapiens, UniProt P61073).
T1 construct: expressed in transfected cells; host or cells: D17 (dog) cells carrying CD4 and CXCR4
The experiment in a line: Flow cytometry of cell surface expression of CXCR4 on transduced D17 CD4 CXCR4 cells. The class given is cell-based. The conditions noted are these: D17 CD4 CXCR4 cells transduced with envelope vector; FIG. 6. As to the method: Method: Flow cytometric analysis was carried out of Cell Surface Expression (CSE) of CXCR4 of cells transduced with vectors comprising the chimeric envelope polypeptide of the present invention. D17 CD4 CXCR4 cells were transduced with a vector expressing SL3-2 envelope with V3 loop inserted at positions indicated.
[…]; 315:51-61). The virus containing supernatant was subsequently used to transduce the D17 CXCR4CD4 cells.
Six chimeric variants have been tested (sequences used shown in SEQ ID NO: 3-8 and 42-47). In all panels the control D17 CD4 CXCR4 cells with […] envelope only (without the V3 insert) was tested against the same envelope comprising a V3 loop variant.
Protocol for flow cytometry: • Harvest cells (by nice trypzination) and spin down gently (1200 rpm, 5 min) • Keep cells on ice in all subsequent steps. • Wash once in wash buffer (2% Serum, 98% PBS—cold) ? […]

Another assay deals with NIH 3T3. Nature of the assay: Titer (transduction) of chimeric envelope constructs on NIH 3T3 cells. The class given is cell-based, mouse. The conditions noted are these: qualitative; FIG. 12. As to the method: Transfections were done by calcium phosphate precipitation method, described by Graham and van der Eb (Graham and van der Eb, 1973) leaving the calcium precipitate on the cells for 24 hours. 293T cells were transfected using 8 μg of envelope expression plasmid, 2 μg gagpol expression plasmid (Morita et al., 2000) and 1 μg of an EGFP expressing plasmid. EGFP was included as a visual aid to determine the success of transfections. Medium on the transfected cells was renewed every day until it was used for transduction, usually between 48 and 72 hours after transfection, depending on the number of green fluorescing cells.
The day before transduction, medium was changed from fetal calf serum to newborn calf serum containing medium. Semi-packaging cells (Bahrami et al., 2003) were seeded at concentration of 10^4 cells/cm^2 24 hours before transduction.
Supernatant from transfected cells was filtered (0.22μ). The supernatant with 6 μg/mL polybrene was added to the target cells. 24 hours later, the infected cells were selected using medium described before containing 600 μg/mL G418 for 10 days.

T1 sequence (P61073 whole entry): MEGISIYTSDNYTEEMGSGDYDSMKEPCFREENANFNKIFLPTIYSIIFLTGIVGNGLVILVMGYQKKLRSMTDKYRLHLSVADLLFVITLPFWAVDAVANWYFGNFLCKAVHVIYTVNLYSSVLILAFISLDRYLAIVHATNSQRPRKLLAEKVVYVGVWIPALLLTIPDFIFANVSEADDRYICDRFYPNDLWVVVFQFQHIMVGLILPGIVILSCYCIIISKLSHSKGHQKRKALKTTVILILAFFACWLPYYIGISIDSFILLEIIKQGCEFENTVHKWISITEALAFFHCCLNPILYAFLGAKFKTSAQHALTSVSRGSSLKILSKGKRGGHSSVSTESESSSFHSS

In the case of “wild-type SL3-2: SL3-2 murine leukaemia virus envelope polypeptide (SEQ ID NO: 2 / 60) [reference compound]”, the “Binding of anti CXCR-4 antibody / CXCR-4 cell surface expression level” value with CXCR4 was “does not affect the expression levels of CXCR-4”. The “Infection of NIH mouse cells” value with NIH 3T3 is “can be infected”.

Values taken from patent US8557971B2, “Chimeric viral envelopes” (Aarhus Universitet, priority 2006, dated 2013).
